Results taken from article PMC11940890.

Experiments:
eFSHR-N191Q (equine) = eFSHR-N191Q (equine) (UniProt P47799)
eFSHR-N293Q (equine) = eFSHR-N293Q (equine) (UniProt P47799)
eFSHR-N199Q (equine) = eFSHR-N199Q (equine) (UniProt P47799)
[1] = target: equine follicle-stimulating hormone receptor wild type (eFSHR-wt) (equine) (UniProt P47799)
eFSHR-N268Q (equine) = eFSHR-N268Q (equine) (UniProt P47799)
Chain of eFSHR-N268Q (equine) (P47799 18-694 N268Q): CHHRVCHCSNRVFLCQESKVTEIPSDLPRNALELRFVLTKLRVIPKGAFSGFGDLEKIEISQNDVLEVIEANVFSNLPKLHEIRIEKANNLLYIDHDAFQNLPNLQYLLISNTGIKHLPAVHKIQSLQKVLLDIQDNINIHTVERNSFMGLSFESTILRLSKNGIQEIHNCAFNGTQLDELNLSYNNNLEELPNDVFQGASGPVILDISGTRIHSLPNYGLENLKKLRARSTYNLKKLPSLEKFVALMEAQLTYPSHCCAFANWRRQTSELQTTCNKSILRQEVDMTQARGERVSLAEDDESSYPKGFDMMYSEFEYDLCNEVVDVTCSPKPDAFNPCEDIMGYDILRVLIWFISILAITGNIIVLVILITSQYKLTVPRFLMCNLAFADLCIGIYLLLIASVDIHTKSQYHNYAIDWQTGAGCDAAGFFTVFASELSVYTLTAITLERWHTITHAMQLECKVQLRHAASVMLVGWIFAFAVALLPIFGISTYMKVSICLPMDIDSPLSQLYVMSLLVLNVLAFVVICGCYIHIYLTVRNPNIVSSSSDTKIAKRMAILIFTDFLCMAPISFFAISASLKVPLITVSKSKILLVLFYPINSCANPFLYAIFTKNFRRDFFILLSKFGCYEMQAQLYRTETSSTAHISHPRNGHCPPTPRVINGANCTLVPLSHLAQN

Chain of Human FSH (hFSH) (P01215 25-116): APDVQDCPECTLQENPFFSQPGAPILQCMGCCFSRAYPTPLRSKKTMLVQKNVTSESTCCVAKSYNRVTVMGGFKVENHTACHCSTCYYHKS
Chain of Human FSH (hFSH) (P01225 19-129): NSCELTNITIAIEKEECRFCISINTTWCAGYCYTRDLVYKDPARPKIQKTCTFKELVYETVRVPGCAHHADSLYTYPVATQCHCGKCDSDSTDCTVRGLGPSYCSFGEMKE
Chain of equine follicle-stimulating hormone receptor wild type (eFSHR-wt) (equine) (P47799 18-694): as the sequence (P47799 18-694 N268Q) above, with Q251N counted along it
Chain of eFSHR-N191Q (equine) (P47799 18-694 N191Q): as the sequence (P47799 18-694 N268Q) above, with N174Q, Q251N counted along it
Chain of eFSHR-N199Q (equine) (P47799 18-694 N199Q): as the sequence (P47799 18-694 N268Q) above, with N182Q, Q251N counted along it
Chain of eFSHR-N293Q (equine) (P47799 18-694 N293Q): as the sequence (P47799 18-694 N268Q) above, with Q251N, N276Q counted along it

EC50 of hFSH-stimulated cAMP response (HTRF cAMP assay), CHO-K1 cells expressing the receptor, 30 min at room temperature (eFSHR-N191Q (equine)): 2.11 µg/mL | EC50 of hFSH-stimulated cAMP response (HTRF cAMP assay), CHO-K1 cells expressing the receptor, 30 min at room temperature (eFSHR-N293Q (equine)): 1.24 µg/mL | EC50 of hFSH-stimulated cAMP response (HTRF cAMP assay), CHO-K1 cells expressing the receptor, 30 min at room temperature (eFSHR-N199Q (equine)): 2.21 µg/mL | EC50 of hFSH-stimulated cAMP response (HTRF cAMP assay), CHO-K1 cells expressing the receptor, 30 min at room temperature [1]: 0.99 µg/mL | EC50 of hFSH-stimulated cAMP response (HTRF cAMP assay), CHO-K1 cells expressing the receptor, 30 min at room temperature (eFSHR-N268Q (equine)): 0.806 µg/mL
Substance: Human FSH (hFSH) (from UniProt P01215 25-116; P01225 19-129) (ligand)
